Assay [1] has as its target H3-nucleosome (mono-nucleosome with canonical H3) (UniProt P84233).
Assay [2] concerns the target H3.3-nucleosome (mono-nucleosome with the variant H3.3) (UniProt P84243).
The target in the next assay is H3.3S31A-nucleosome (UniProt P84243).
A further assay concerns the target H3.3S31E-nucleosome (UniProt P84243).
In assay [3] the target is H3.3S31ph-nucleosome (H3.3-nucleosome with Ser31 phosphorylation) (UniProt P84243).

Regarding “FACT (Facilitates Chromatin Transcription) complex (from UniProt Q9Y5B9 1-1047; Q08945 1-709)”, the rupture force at which the nucleosome is completely disrupted in the presence of FACT (magnetic tweezers) stood at 6.7 pN in assay [1], 24.5 pN in assay [2], 25.4 pN with H3.3S31A-nucleosome and 25.4 pN in the assay with H3.3S31E-nucleosome. In addition, in assay [3], the force of disruption in the first stretching cycle in the presence of FACT; no transitions in later cycles (magnetic tweezers) was found to be 13.9 pN.

The values are drawn from article PMC12445699.
